Laboratory results taken from patent US20250161474A1 (SICHUAN KELUN BIOTECH BIOPHARMACEUTICAL, published 2025).
Positions count from the first letter of the chain named.

B1: ADC 49B-A-05 (bispecific antibody, human IgG1, kappa, L234A L235A)
light: DIQMTQSPSSLSASVGDRVTITCKSSQSLLYTSSQKNYLAWYQQKPGKAPKLLIYWASTRESGVPSRFSGSGSGTDFTLTISSLQPEDFATYYCQQYYAYPWTFGQGTKVEIKRTVAAPSVFIFPPSDEQLKSGTASVVCLLNNFYPREAKVQWKVDNALQSGNSQESVTEQDSKDSTYSLSSTLTLSKADYEKHKVYACEVTHQGLSSPVTKSFNRGEC
heavy: not shown
chain: AIQLTQSPSSLSASVGDRVTITCRASQDISSALVWYQQKPGKAPKLLIYDASSLESGVPSRFSGSESGTDFTLTISSLQPEDFATYYCQQFNSYPLTFGGGTKVEIKGGGGSGGGGSGGGGSQVQLVESGGGVVQPGRSLRLSCAASGFTFSTYGMHWVRQAPGKGLEWVAVIWDDGSYKYYGDSVKGRFTISRDNSKNTLYLQMNSLRAEDTAVYYCARDGITMVRGVMKDYFDYWGQGTLVTVSSGGGGDKTHTCPPCPAPEAAGGPSVFLFPPKPKDTLMISRTPEVTCVVVDVSHEDPEVKFNWYVDGVEVHNAKTKPREEQYNSTYRVVSVLTVLHQDWLNGKEYKCKVSNKALAAPIEKTISKAKGQPREPQVCTLPPSRDELTKNQVSLSCAVKGFYPSDIAVEWESNGQPENNYKTTPPVLDSDGSFFLVSKLTVDKSRWQQGNVFSCSVMHEALHNHYTQKSLSLSPGK
modifications: linker-payload A-05 on reduced Cys sulfhydryls (sites not given); DAR of the whole ADC approximately 6
B2: BsAb 10B (bispecific antibody, human IgG1, kappa)
light: not shown
heavy: not shown
chain: DIQMTQSPSSLSASVGDRVTITCKSSQSLLYTSSQKNYLAWYQQKPGKAPKLLIYWASTRESGVPSRFSGSGSGTDFTLTISSLQPEDFATYYCQQYYAYPWTFGQGTKVEIKGGGGSGGGGSGGGGSEVQLVESGGGLVQPGGSLRLSCAASGYTFTSYWLHWVRQAPGKGLEWVGMIDPSNSDTRFNPNFKDRFTISADTSKNTAYLQMNSLRAEDTAVYYCATYRSYVTPLDYWGQGTLVTVSSGGGGDKTHTCPPCPAPELLGGPSVFLFPPKPKDTLMISRTPEVTCVVVDVSHEDPEVKFNWYVDGVEVHNAKTKPREEQYNSTYRVVSVLTVLHQDWLNGKEYKCKVSNKALPAPIEKTISKAKGQPREPQVCTLPPSREEMTKNQVSLSCAVKGFYPSDIAVEWESNGQPENNYKTTPPVLDSDGSFFLVSKLTVDKSRWQQGNVFSCSVMHEALHNHYTQKSLSLSPGK
notes: Fab-scFv-Fc (KIH) format; anti-EGFR Fab, anti-c-MET scFv; also called bispecific antibody 10B
B3: ADC 38B-A-14 (bispecific antibody, human IgG1, kappa, L234A L235A)
light: not shown
heavy: not shown
chain: B2 chain with L265A, L266A, P360A, E387D, M389L
modifications: linker-payload A-14 on reduced Cys sulfhydryls (sites not given); DAR of the whole ADC approximately 6
B4: BsAb 49B (bispecific antibody, human IgG1, kappa, L234A L235A)
light: B1 light
heavy: not shown
chain: B1 chain
notes: Fab-scFv-Fc (KIH) format; anti-c-MET Fab, anti-EGFR scFv; also called BsB 49B; bispecific antibody 49B
B5: ADC 07B-A-05 (bispecific antibody, human IgG1, kappa)
light: B1 light
heavy: not shown
chain: B1 chain with A265L, A266L, A360P, D387E, L389M
modifications: linker-payload A-05 on reduced Cys sulfhydryls (sites not given); DAR of the whole ADC approximately 6
B6: BsAb 07B (bispecific antibody, human IgG1, kappa)
light: B1 light
heavy: not shown
chain: B1 chain with A265L, A266L, A360P, D387E, L389M
notes: Fab-scFv-Fc (KIH) format; anti-c-MET Fab, anti-EGFR scFv; expressed in CHO-K1; also called bispecific antibody 07B
B7: ADC 49B-A-14 (bispecific antibody, human IgG1, kappa, L234A L235A)
light: B1 light
heavy: not shown
chain: B1 chain
modifications: linker-payload A-14 on reduced Cys sulfhydryls (sites not given); DAR of the whole ADC approximately 6
B8: ADC 55B-A-14 (bispecific antibody, human IgG1, kappa, L234A L235A)
light: B1 light
heavy: not shown
chain 1: AIQLTQSPSSLSASVGDRVTITCRASQDISSALVWYQQKPGKAPKLLIYDASSLESGVPSRFSGSESGTDFTLTISSLQPEDFATYYCQQFNSYPLTFGGGTKVEIKSSASTKGPSVFPLAPSSKSTSGGTAALGCLVKDYFPEPVTVSWNSGALTSGVHTFPAVLQSSGLYSLSSVVTVPSSSLGTQTYICNVNHKPSNTKVDKKVEPKSC
chain 2: QVQLVESGGGVVQPGRSLRLSCAASGFTFSTYGMHWVRQAPGKGLEWVAVIWDDGSYKYYGDSVKGRFTISRDNSKNTLYLQMNSLRAEDTAVYYCARDGITMVRGVMKDYFDYWGQGTLVTVSSASVAAPSVFIFPPSDEQLKSGTASVVCLLNNFYPREAKVQWKVDNALQSGNSQESVTEQDSKDSTYSLSSTLTLSKADYEKHKVYACEVTHQGLSSPVTKSFNRGECDKTHTCPPCPAPEAAGGPSVFLFPPKPKDTLMISRTPEVTCVVVDVSHEDPEVKFNWYVDGVEVHNAKTKPREEQYNSTYRVVSVLTVLHQDWLNGKEYKCKVSNKALAAPIEKTISKAKGQPREPQVCTLPPSRDELTKNQVSLSCAVKGFYPSDIAVEWESNGQPENNYKTTPPVLDSDGSFFLVSKLTVDKSRWQQGNVFSCSVMHEALHNHYTQKSLSLSPGK
modifications: linker-payload A-14 on reduced Cys sulfhydryls (sites not given); DAR of the whole ADC approximately 8
B9: ADC 56B-A-14 (bispecific antibody)
chain 1: not shown
chain 2: B2 chain with L265A, L266A, P360A, E387D, M389L
modifications: linker-payload A-14 on reduced Cys sulfhydryls (sites not given); DAR of the whole ADC approximately 4
B10: ADC 49B-B-01 (bispecific antibody, human IgG1, kappa, L234A L235A)
light: B1 light
heavy: not shown
chain: B1 chain
modifications: linker-payload B-01 on reduced Cys sulfhydryls (sites not given); DAR of the whole ADC approximately 6
B11: BsAb 38B (bispecific antibody, human IgG1, kappa, L234A L235A)
light: not shown
heavy: not shown
chain: B2 chain with L265A, L266A, P360A, E387D, M389L
notes: Fab-scFv-Fc (KIH) format; anti-EGFR Fab, anti-c-MET scFv; also called bispecific antibody 38B

Experiments:
human c-MET [1] = target: T1, human c-MET (human, UniProt P08581 25-1390); assay: flow cytometry on EBC-1 cells (highly express c-MET)
T1 construct: whole, on cells; also called tyrosine protein kinase Met; hepatocyte growth factor receptor
T1 sequence (P08581 25-1390): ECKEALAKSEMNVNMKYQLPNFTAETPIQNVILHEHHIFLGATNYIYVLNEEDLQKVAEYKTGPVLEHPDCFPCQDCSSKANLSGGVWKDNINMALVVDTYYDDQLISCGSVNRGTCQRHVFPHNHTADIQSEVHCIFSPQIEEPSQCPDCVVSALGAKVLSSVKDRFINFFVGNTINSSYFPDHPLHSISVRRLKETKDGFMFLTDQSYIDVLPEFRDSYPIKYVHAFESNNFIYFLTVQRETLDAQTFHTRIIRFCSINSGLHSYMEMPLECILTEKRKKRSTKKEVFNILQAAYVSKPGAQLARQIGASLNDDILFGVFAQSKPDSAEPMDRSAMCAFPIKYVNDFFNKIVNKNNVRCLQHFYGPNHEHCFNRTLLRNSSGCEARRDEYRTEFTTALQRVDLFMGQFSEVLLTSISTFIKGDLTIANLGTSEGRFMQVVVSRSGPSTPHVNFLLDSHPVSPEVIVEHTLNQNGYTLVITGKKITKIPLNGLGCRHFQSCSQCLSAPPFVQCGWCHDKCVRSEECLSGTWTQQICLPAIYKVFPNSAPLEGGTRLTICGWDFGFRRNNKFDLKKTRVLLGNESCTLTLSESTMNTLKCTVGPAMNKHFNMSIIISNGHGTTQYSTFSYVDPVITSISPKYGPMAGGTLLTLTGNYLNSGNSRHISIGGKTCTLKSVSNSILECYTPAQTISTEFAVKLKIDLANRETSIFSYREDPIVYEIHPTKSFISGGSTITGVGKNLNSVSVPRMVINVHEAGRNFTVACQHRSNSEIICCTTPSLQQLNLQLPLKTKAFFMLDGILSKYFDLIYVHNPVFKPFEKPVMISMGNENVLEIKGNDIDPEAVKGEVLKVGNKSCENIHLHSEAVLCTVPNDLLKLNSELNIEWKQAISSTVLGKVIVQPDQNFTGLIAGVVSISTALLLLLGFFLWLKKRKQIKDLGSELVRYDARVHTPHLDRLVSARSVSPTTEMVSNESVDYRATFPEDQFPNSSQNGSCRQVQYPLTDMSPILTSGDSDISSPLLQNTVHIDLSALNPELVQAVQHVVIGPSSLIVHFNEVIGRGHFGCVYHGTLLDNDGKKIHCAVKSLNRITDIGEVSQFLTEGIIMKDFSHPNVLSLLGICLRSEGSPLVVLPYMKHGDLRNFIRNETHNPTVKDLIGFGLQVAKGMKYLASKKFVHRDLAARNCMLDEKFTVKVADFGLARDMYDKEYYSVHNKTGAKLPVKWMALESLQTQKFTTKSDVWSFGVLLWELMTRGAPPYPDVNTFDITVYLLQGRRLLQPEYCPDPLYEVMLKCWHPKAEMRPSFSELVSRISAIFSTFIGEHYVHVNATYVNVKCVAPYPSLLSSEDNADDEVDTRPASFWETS
Source text: (§1) A flow cytometer (Beckman, model Cytoflex) was used to detect the interaction between anti-human EGFR/c-MET bispecific antibodies and their conjugates and human gastric cancer cells MKN45 (Nanjing Cobioer Biosciences) and human gastric cancer cells overexpressing human EGFR MKN45-EGFR (Kelun-Biotech), human lung squamous cell carcinoma EBC-1 (Nanjing Cobioer Biosciences), human lung squamous cell carcinoma EBC-1-EGFR overexpressing human EGFR (Kelun-Biotech), human non-small cell lung cancer cell HCC827 (ATCC™), and human epidermal squamous cell carcinoma cell A431 (Nanjing Cobioer Biosciences). The protocol was as follows.
(§2) The adherent cells were digested with Trypsin-EDTA solution (0.25%) (Shanghai BasalMedia) and the cell density adjusted to 4.0×10⁶ per mL. The cells were washed twice with 1% BSA and resuspended in 1% BSA solution. Then 50 μL cell suspension was added to each well of a 96-well plate (the number of cells was 2×10⁵ per well). The antibody and its conjugate were diluted with 1% BSA (final concentration 10 µg/mL, 3-fold gradient dilution, a total of 11 concentration points). Then 50 μL of the diluted antibody and ADC were added to the wells of the 96-well plate and the plate was incubated at 4° C. for 60 minutes. The wells of the 96-well plate were then washed twice with 1% BSA, 50 μL of diluted secondary antibody was added to each well, and the 96-well plate was incubated at 4° C. for 30 minutes. Then the cells were washed twice with 1% BSA, and the cells were resuspended in 200 μL of 1% BSA and subjected to flow cytometry detection.

human c-MET [2] = target: T1, human c-MET; assay: cell-based or functional assay
human c-MET [3] = target: T1, human c-MET; assay: flow cytometry on MKN45 cells (highly express c-MET)
Source text: as §1, §2

| Binder | EC50 (human c-MET [1]) | IC50, in vitro cell killing (CCK8) on EBC-1 cells (human c-MET [2]) | IC50, in vitro cell killing (CCK8) on MKN45 cells (human c-MET [2]) | EC50 (human c-MET [3]) |
| --- | --- | --- | --- | --- |
| B1 | 0.95 nM | 1.08 nM | 0.68 nM | 1.58 nM |
| B2 | 1.51 nM | – | – | 1.1 nM |
| B3 | 1.29 nM | 1.03 nM | 0.3 nM | – |
| B4 | 1.32 nM | – | – | 0.34 nM |
| B5 | 1.47 nM | 0.48 nM | – | – |
| B6 | 1.46 nM | – | – | – |
| B7 | 1.51 nM | 2.93 nM | 0.57 nM | 1.06 nM |
| B8 | – | 0.42 nM | 0.4 nM | – |
| B9 | – | 2.95 nM | 1.17 nM | – |
| B10 | 1.13 nM | 0.66 nM | 0.78 nM | 1.36 nM |
| B11 | – | – | – | 1.16 nM |
